T1: Human RNF43 ECD with Fc region fused on its C-terminus (human)
T1 construct: also called RNF43-Fc
T1 chain: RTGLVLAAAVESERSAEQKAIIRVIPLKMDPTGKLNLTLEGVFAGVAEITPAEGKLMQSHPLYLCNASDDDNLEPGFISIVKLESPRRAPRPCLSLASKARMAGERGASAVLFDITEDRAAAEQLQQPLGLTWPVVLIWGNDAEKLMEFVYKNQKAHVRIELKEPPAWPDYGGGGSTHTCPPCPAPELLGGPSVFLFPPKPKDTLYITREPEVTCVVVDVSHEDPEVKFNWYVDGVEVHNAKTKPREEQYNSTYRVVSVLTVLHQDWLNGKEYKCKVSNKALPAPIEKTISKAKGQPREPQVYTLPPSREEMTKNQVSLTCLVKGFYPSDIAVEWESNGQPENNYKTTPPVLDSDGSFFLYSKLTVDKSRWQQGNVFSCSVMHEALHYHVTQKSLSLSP


What was measured:
[1] = molecular target: T1, Human RNF43 ECD with Fc region fused on …; assay: competition ELISA on coated RNF43-Fc; first antibody unlabelled at 10x its EC50, second (reference) antibody biotinylated RNN0187jj at its EC50
Protocol: (§1) EC50 concentration for the binding of each anti-RNF43 monospecific antibody to RNF43-Fc (described in Example 2) was first determined by ELISA assay, using the biotinylated antibodies. In brief, RNF43-Fc at 5 micro g/mL or 1 micro g/mL was coated on Maxisorp plate (NUNC) at 4 degrees C. overnight. The coated plate was then washed with PBS-T, followed by blocking with Blocking One solution (Nacalai Tesque) for 2 hours at room temperature. Serially diluted, biotinylated anti-RNF43 monospecific antibody was then added and incubated for 1 hour at room temperature. After washing with PBS-T, StAv-HRP (PIERCE) was added and incubated for 1 hour at room temperature. After washing with PBS-T, ABTS Peroxidase substrate (SeraCare Life Sciences) was added and signal intensity was measured using Multiskan™ GO Microplate Spectrophotometer. EC50 concentration for the binding of the anti-RNF43 monospecific antibody to RNF43-Fc was calculated using Non-linear regression 4-parameter fit. The normalized absorbance at 405 nm/570 nm measured when EC50 concentration of anti-RNF43 antibodies was applied is denoted as AO.
(§2) To evaluate binding competition between the anti-RNF43 monospecific antibodies, ELISA assay with similar setting was conducted. RNF43-Fc was first coated in Maxisorp plate overnight. […] After washing with PBS-T, ABTS Peroxidase substrate was added and signal intensity was measured using Multiskan™ GO Microplate Spectrophotometer. The normalized absorbance at 405 nm/570 nm is denoted as A.

[2] = molecular target: T1, Human RNF43 ECD with Fc region fused on …; assay: competition ELISA on coated RNF43-Fc; first antibody unlabelled at 10x its EC50, second (reference) antibody biotinylated RNN0207ii at its EC50
Protocol: as §1, §2

[3] = molecular target: T1, Human RNF43 ECD with Fc region fused on …; assay: competition ELISA on coated RNF43-Fc; first antibody unlabelled at 10x its EC50, second (reference) antibody biotinylated RNN0193jj at its EC50
Protocol: as §1, §2

[4] = molecular target: T1, Human RNF43 ECD with Fc region fused on …; assay: competition ELISA on coated RNF43-Fc; first antibody unlabelled at 10x its EC50, second (reference) antibody biotinylated RNN0242nn at its EC50
Protocol: as §1, §2

[5] = molecular target: T1, Human RNF43 ECD with Fc region fused on …; assay: competition ELISA on coated RNF43-Fc; first antibody unlabelled at 10x its EC50, second (reference) antibody biotinylated RNN0246jj at its EC50
Protocol: as §1, §2

[6] = molecular target: T1, Human RNF43 ECD with Fc region fused on …; assay: competition ELISA on coated RNF43-Fc; first antibody unlabelled at 10x its EC50, second (reference) antibody biotinylated RNN0192nn at its EC50
Protocol: as §1, §2

Binder	binding inhibition (%) [1] [%]	binding inhibition (%) [2] [%]	binding inhibition (%) [3] [%]	binding inhibition (%) [4] [%]	binding inhibition (%) [5] [%]	binding inhibition (%) [6] [%]
RNN0192nn with rabbit constant region (antibody) heavy: QEQLVESGGGLVQPEGSLTLTCTASGFSFSSRYYMCWVRQAPGKGLEWIGCIYTGSGSTYYASWAKGRVTISKTSSTTVTLQMTSLTAADTATYFCAREAGSFNLWGPGTLVTVSSGQPKAPSVFPLAPCCGDTPSSTVTLGCLVKGYLPEPVTVTWNSGTLTNGVRTFPSVRQSSGLYSLSSVVSVTSSSQPVTCNVAHPATNTKVDKTVAPSTCSKPMCPPPELLGGPSVFIFPPKPKDTLMISRTPEVTCVVVDVSQDDPEVQFTWYINNEQVRTARPPLREQQFNSTIRVVSTLPIAHQDWLRGKEFKCKVHNKALPAPIEKTISKARGQPLEPKVYTMGPPREELSSRSVSLTCMINGFYPSDISVEWEKNGKAEDNYKTTPTVLDSDGSYFLYSKLSVPTSEWQRGDVFTCSVMHEALHNHYTQKSISRSPGK light: DVVMTQTPASVSEPVGGTVTIKCQASQSIYSGLAWYQQKPGQPPKLLIYSASKLASGVPSRFKGSGSGTEYTLTISDLECADAATYYCQNYYYGISNGWTFGGGTKVEIKRDPVAPTVLIFPPAADQVATGTVTIVCVANKYFPDVTVTWEVDGTTQTTGIENSKTPQNSADCTYNLSSTLTLTSTQYNSHKEYTCKVTQGTTSVVQSFNRGDC	91	-6.42	0.25	45.6	21.9	88.5
RNN0246jj with rabbit constant region (antibody) heavy: QSVEESGGRLVTPDETLTLTCTVSGFSLNNYHMIWVRQAPGEGLEYIGFINTGGSAYYANWAKGRFTISKTSTTVDLKITSPTTEDTATYFCASVSWRTDYSFELWGPGTLVTVSSGQPKAPSVFPLAPCCGDTPSSTVTLGCLVKGYLPEPVTVTWNSGTLTNGVRTFPSVRQSSGLYSLSSVVSVTSSSQPVTCNVAHPATNTKVDKTVAPSTCSKPMCPPPELLGGPSVFIFPPKPKDTLMISRTPEVTCVVVDVSQDDPEVQFTWYINNEQVRTARPPLREQQFNSTIRVVSTLPIAHQDWLRGKEFKCKVHNKALPAPIEKTISKARGQPLEPKVYTMGPPREELSSRSVSLTCMINGFYPSDISVEWEKNGKAEDNYKTTPTVLDSDGSYFLYSKLSVPTSEWQRGDVFTCSVMHEALHNHYTQKSISRSPGK light: AQVLTQTPSPVSAAVGGTVTISCQASQSVYANNRLAWFQQKPGQPPKLLIYSASTLASGVPSRFKGSGSGTQFTLTISGVQCDDAATYYCAGAYTGNIYTFGGGTKVEIKRDPVAPTVLIFPPAADQVATGTVTIVCVANKYFPDVTVTWEVDGTTQTTGIENSKTPQNSADCTYNLSSTLTLTSTQYNSHKEYTCKVTQGTTSVVQSFNRGDC	12.6	-0.14	1.17	22.6	29.8	-0.13
RNN0207ii with rabbit constant region (antibody) heavy: QEQLEESGGRLVTPGGSLTLTCTASGFSLSSYVISWVRQAPGEGLEYIGYVSTGGSPYYASWAKGRFTISRTSTAVDLKMTSLTASDTATYFCARYGYLDYSGLDLWGQGTLVTVSSGQPKAPSVFPLAPCCGDTPSSTVTLGCLVKGYLPEPVTVTWNSGTLTNGVRTFPSVRQSSGLYSLSSVVSVTSSSQPVTCNVAHPATNTKVDKTVAPSTCSKPMCPPPELLGGPSVFIFPPKPKDTLMISRTPEVTCVVVDVSQDDPEVQFTWYINNEQVRTARPPLREQQFNSTIRVVSTLPIAHQDWLRGKEFKCKVHNKALPAPIEKTISKARGQPLEPKVYTMGPPREELSSRSVSLTCMINGFYPSDISVEWEKNGKAEDNYKTTPTVLDSDGSYFLYSKLSVPTSEWQRGDVFTCSVMHEALHNHYTQKSISRSPGK light: AQVLTQTPSSTSTAVGGTVTINCQSSQSVYEYNHLSWFQQKPGQPPKLLIYGASTLASGVPSRFKGSGSGTQFTLTISDLECDDAATYYCQGAYYGVVDTFGGGTKVEIKRDPVAPTVLIFPPAADQVATGTVTIVCVANKYFPDVTVTWEVDGTTQTTGIENSKTPQNSADCTYNLSSTLTLTSTQYNSHKEYTCKVTQGTTSVVQSFNRGDC	-0.38	65.9	1.05	-0.71	-1.38	-3.55

More lines, now with the values ahead:

binding inhibition (%) [1] [%]	binding inhibition (%) [2] [%]	binding inhibition (%) [3] [%]	binding inhibition (%) [4] [%]	binding inhibition (%) [5] [%]	binding inhibition (%) [6] [%]	Binder
3.21	-1.42	50.2	21.3	5.04	-15.2	RNN0193jj with rabbit constant region (antibody) heavy: QSLEESGGDLVKPGASLTLTCTASGFSFSNNYWICWVRQAPGKGPEWIACIYTGDGDTDYASWAKGRFTISKTSSTTVTLQMTSLTAADTATYFCAREAGTVDGVWNYVFNLWGPGTLVTVSSGQPKAPSVFPLAPCCGDTPSSTVTLGCLVKGYLPEPVTVTWNSGTLTNGVRTFPSVRQSSGLYSLSSVVSVTSSSQPVTCNVAHPATNTKVDKTVAPSTCSKPMCPPPELLGGPSVFIFPPKPKDTLMISRTPEVTCVVVDVSQDDPEVQFTWYINNEQVRTARPPLREQQFNSTIRVVSTLPIAHQDWLRGKEFKCKVHNKALPAPIEKTISKARGQPLEPKVYTMGPPREELSSRSVSLTCMINGFYPSDISVEWEKNGKAEDNYKTTPTVLDSDGSYFLYSKLSVPTSEWQRGDVFTCSVMHEALHNHYTQKSISRSPGK light: AQVLTQTPSPVSAAVGGTVTISCQSSQSVYNDNLAWFQQKPGQPPKLLIYDASTLASGVPSRFKGSGSGTQFTLTISKLQCDDAATYYCQGVYIGHIFTFGGGTKVEIKRDPVAPTVLIFPPAADQVATGTVTIVCVANKYFPDVTVTWEVDGTTQTTGIENSKTPQNSADCTYNLSSTLTLTSTQYNSHKEYTCKVTQGTTSVVQSFNRGDC
30.7	1.89	2.35	22.3	15.1	60.6	RNN0187jj with rabbit constant region (antibody) heavy: QSLEESGGDLVKPGASLTLTCTASGFSFNSAYYMCWVRQAPGKGLEWIGCIYTGSGSTYYASWAKGRFTISKTSSTTVTLQMTSLTVADTATYFCARSGVSTYYTLWGPGTLVTVSSGQPKAPSVFPLAPCCGDTPSSTVTLGCLVKGYLPEPVTVTWNSGTLTNGVRTFPSVRQSSGLYSLSSVVSVTSSSQPVTCNVAHPATNTKVDKTVAPSTCSKPMCPPPELLGGPSVFIFPPKPKDTLMISRTPEVTCVVVDVSQDDPEVQFTWYINNEQVRTARPPLREQQFNSTIRVVSTLPIAHQDWLRGKEFKCKVHNKALPAPIEKTISKARGQPLEPKVYTMGPPREELSSRSVSLTCMINGFYPSDISVEWEKNGKAEDNYKTTPTVLDSDGSYFLYSKLSVPTSEWQRGDVFTCSVMHEALHNHYTQKSISRSPGK light: DVVMTQTPSSVSAAVGGTVTIKCQASQSIYSGLAWYQQKPGQPPKLLIYGASTLASGVPSRFKGSGSGTEYTLTISGVQCDDAATYYCQNNYYTPSNGWAFGGGTKVEIKRDPVAPTVLIFPPAADQVATGTVTIVCVANKYFPDVTVTWEVDGTTQTTGIENSKTPQNSADCTYNLSSTLTLTSTQYNSHKEYTCKVTQGTTSVVQSFNRGDC
11.4	1.62	12.6	86.8	74.7	9.66	RNN0242nn with rabbit constant region (antibody) heavy: QQQLEEYGGDLVQPEGSLTLTCKASGLDFSSSYWMCWVRQAPGKGLEWIACIYTGSSGSTSYASWAKGRFTISKTSSTTVTLQMTSLTAADTATYFCARDYDYTAYAYGIMSLWGPGTLVTVSSGQPKAPSVFPLAPCCGDTPSSTVTLGCLVKGYLPEPVTVTWNSGTLTNGVRTFPSVRQSSGLYSLSSVVSVTSSSQPVTCNVAHPATNTKVDKTVAPSTCSKPMCPPPELLGGPSVFIFPPKPKDTLMISRTPEVTCVVVDVSQDDPEVQFTWYINNEQVRTARPPLREQQFNSTIRVVSTLPIAHQDWLRGKEFKCKVHNKALPAPIEKTISKARGQPLEPKVYTMGPPREELSSRSVSLTCMINGFYPSDISVEWEKNGKAEDNYKTTPTVLDSDGSYFLYSKLSVPTSEWQRGDVFTCSVMHEALHNHYTQKSISRSPGK light: AEIVMTQTPSSKSAAVGDTVTIKCQASQSITSYLSWYQQKPGQPPKLLIYRASTLASGVPSRFKGSGSGTQFTLTISDLECADAATYYCQSNYGSYSTNYGVTFGGGTKVEIKRDPVAPTVLIFPPAADQVATGTVTIVCVANKYFPDVTVTWEVDGTTQTTGIENSKTPQNSADCTYNLSSTLTLTSTQYNSHKEYTCKVTQGTTSVVQSFNRGDC

From US20240239890A1 (Chugai, published 2024)
